No end group written: not given here.
Columns and labels:
Assay in all cases: Kinase Profiling Assay
Assay type in all cases: biochemical
Conditions in all cases: peptide 100 μM
p70S6K(h) = molecular target: T1, p70S6K(h) (Homo sapiens, UniProt P23443)
T1 construct: purchased Millipore
How it was run: (§1)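 Scintillation counting quantifies radiolabeled, positively charged substrate retained on a negatively charged filter after kinase reaction with labeled ATP; inhibitor peptide present.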

PTK5(h) = PTK5(h) (Homo sapiens, UniProt P42685)
Sequence of PTK5(h) (P42685 whole entry): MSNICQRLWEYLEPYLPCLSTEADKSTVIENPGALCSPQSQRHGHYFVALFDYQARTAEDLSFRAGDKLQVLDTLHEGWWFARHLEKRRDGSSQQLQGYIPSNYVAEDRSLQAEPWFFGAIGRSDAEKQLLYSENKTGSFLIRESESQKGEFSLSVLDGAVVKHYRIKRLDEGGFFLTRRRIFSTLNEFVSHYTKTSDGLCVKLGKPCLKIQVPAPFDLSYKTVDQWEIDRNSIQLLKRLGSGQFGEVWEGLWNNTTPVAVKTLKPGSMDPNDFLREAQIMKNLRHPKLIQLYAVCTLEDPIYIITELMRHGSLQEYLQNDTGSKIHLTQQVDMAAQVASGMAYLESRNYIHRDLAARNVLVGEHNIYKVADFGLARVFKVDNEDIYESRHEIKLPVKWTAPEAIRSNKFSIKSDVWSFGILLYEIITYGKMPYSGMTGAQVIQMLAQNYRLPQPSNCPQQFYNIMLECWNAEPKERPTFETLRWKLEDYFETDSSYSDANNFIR
How it was run: as §1

eEF-2K(h) = eEF-2K(h) (Homo sapiens, UniProt O00418)
How it was run: as §1

EphB3(h) = molecular target: T2, EphB3(h) (Homo sapiens, UniProt P54753)
T2 sequence (P54753 34-998): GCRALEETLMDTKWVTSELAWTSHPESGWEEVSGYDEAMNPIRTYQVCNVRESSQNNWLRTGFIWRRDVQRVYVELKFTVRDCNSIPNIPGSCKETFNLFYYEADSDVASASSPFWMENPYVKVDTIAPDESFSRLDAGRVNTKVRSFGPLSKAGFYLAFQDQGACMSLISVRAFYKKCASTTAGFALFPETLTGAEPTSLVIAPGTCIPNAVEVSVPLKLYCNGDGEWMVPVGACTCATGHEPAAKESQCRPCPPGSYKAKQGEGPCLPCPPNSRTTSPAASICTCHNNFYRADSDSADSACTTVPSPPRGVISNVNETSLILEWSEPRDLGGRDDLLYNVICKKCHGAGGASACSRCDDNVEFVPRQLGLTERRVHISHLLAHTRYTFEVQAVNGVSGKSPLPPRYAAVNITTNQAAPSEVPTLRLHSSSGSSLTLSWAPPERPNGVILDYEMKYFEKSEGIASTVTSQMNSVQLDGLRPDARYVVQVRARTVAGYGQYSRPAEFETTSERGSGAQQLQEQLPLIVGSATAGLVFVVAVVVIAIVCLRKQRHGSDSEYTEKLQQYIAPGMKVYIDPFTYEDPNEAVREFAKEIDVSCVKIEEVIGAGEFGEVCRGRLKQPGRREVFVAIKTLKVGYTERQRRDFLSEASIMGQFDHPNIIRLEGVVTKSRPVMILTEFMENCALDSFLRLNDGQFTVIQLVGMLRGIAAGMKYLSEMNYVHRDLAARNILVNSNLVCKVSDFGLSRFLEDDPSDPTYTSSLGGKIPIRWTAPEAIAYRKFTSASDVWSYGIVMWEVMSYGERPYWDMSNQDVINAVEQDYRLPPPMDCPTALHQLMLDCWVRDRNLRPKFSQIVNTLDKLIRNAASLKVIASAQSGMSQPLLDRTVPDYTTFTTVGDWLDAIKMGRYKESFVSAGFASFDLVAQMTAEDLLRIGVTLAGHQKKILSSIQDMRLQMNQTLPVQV
How it was run: as §1

EphB1(h) = molecular target: T3, EphB1(h) (Homo sapiens, UniProt P54762)
T3 sequence (P54762 18-984): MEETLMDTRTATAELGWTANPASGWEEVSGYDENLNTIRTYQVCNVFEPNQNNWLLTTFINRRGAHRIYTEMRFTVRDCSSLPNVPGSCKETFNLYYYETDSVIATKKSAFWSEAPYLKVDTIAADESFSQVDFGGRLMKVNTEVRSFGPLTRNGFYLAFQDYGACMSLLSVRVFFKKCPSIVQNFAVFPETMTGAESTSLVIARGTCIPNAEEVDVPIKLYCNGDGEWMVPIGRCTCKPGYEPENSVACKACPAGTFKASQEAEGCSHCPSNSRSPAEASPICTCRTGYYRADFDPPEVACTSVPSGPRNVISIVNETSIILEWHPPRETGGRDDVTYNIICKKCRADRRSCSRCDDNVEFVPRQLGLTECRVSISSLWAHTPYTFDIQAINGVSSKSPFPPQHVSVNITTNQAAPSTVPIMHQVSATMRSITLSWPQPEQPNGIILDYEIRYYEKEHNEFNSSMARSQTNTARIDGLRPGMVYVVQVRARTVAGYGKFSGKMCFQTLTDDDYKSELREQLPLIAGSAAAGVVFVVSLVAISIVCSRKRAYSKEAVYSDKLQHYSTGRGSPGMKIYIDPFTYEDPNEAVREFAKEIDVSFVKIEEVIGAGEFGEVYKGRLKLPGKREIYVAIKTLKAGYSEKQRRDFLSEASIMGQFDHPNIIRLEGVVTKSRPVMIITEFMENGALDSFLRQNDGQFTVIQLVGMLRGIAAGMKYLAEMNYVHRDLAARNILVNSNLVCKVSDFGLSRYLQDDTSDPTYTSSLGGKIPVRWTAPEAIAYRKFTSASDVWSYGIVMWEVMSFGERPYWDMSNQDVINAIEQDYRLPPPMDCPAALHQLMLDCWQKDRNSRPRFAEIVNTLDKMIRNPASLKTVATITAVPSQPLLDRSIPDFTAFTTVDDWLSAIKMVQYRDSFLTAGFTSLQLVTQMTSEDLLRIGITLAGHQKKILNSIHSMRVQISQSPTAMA
How it was run: as §1

Tec(h) activated = molecular target: T4, Tec(h) activated (Homo sapiens, UniProt P42680)
T4 construct: purchased Millipore
T4 sequence (P42680 1-631): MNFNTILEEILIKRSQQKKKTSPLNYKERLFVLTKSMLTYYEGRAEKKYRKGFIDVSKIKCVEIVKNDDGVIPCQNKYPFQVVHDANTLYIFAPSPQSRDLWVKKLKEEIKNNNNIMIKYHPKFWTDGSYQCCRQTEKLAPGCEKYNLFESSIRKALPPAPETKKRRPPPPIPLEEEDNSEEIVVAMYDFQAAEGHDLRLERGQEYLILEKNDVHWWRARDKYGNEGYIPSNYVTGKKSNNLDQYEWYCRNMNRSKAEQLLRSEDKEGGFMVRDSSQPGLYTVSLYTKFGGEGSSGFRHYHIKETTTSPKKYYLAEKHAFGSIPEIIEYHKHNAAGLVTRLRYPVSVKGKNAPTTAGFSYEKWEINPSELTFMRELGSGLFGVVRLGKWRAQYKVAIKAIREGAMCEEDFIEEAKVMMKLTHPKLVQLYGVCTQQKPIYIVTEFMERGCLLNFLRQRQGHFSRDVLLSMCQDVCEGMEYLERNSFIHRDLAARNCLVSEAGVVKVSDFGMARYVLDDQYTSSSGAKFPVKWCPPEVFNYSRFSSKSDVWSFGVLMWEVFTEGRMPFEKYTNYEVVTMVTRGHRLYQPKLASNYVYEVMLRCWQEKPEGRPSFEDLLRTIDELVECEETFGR
How it was run: as §1

T1 sequence (P23443 whole entry): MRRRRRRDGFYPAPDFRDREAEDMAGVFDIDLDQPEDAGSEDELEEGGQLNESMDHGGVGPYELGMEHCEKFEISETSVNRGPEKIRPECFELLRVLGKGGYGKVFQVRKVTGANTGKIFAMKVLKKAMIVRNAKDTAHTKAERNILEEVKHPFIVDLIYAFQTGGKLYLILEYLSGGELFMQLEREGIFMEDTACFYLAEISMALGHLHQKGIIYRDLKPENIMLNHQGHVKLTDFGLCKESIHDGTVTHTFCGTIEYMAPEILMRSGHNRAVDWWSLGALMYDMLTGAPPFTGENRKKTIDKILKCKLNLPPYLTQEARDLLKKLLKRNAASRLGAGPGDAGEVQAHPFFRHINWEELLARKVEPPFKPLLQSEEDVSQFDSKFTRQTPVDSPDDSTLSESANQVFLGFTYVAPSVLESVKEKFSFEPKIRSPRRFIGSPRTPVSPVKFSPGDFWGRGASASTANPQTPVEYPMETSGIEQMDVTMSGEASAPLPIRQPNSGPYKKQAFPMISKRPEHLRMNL

Sequence: FAKLAARLYRKALARQLGVAA [MMI-0300]
- % activity (p70S6K(h)): 35%
- % activity (PTK5(h)): 132%
- % activity (eEF-2K(h)): 91%
- % activity (EphB3(h)): 62%
- % activity (EphB1(h)): 44%
- % activity (Tec(h) activated): 56%

Sequence: HRRIKAWLKKIKALARQLGVAA (Mammal) [MMI-0500]
- % activity (p70S6K(h)): 3%
- % activity (PTK5(h)): 96%
- % activity (eEF-2K(h)): 43%
- % activity (EphB3(h)): 79%
- % activity (EphB1(h)): 37%
- % activity (Tec(h) activated): 33%

Sequence: KAFAKLAARLYRKALARQLGVAA [MMI-0400]
- % activity (p70S6K(h)): 33%
- % activity (PTK5(h)): 129%
- % activity (eEF-2K(h)): 43%
- % activity (EphB3(h)): 47%
- % activity (EphB1(h)): 58%
- % activity (Tec(h) activated): 29%

Sequence: YARAAARQARAKALARQLGVAA [MMI-0100]
- % activity (p70S6K(h)): 89%
- % activity (PTK5(h)): 135%
- % activity (EphB1(h)): 99%
- % activity (Tec(h) activated): 100%

Sequence: YARAAARQARAKALNRQLGVA (Mammal) [MMI-0200]
- % activity (p70S6K(h)): 84%
- % activity (PTK5(h)): 108%
- % activity (EphB3(h)): 128%
- % activity (EphB1(h)): 95%
- % activity (Tec(h) activated): 77%
